# From PMC9569990 (International Journal of Molecular Sciences, 2022)
# B1: Human S100P protein (recombinant, Ca^2+-loaded) (natural protein)
# chain: MTELETAMGMIIDVFSRYSGSEGSTQTLTKGELKVLMEKELPGFLQSGKDKDAVDKLLKDLDANGDAQVDFSEFIVFVAAITSACHKYFEKAGLK
# notes: S100P protein, human, recombinant; probably the whole 95-residue protein (surmise); also called wild-type S100P; WT S100P; source: E. coli, prepared as previously described [28]
# Assays:
# Experiment in all cases: SPR; cytokine immobilised on ProteOn GLH sensor chip by amine coupling (9,000-14,000 RU); S100P (wild type or mutant) as analyte, 62 nM-16 µM; 25 °C; 10 mM HEPES, 150 mM NaCl, 1 mM CaCl2, 0.05% TWEEN 20, pH 7.4; heterogeneous ligand model (two ligand populations), one-site model for IL-13; values averaged over analyte concentrations (n = 3-5)
# Conditions in all cases: both partners purified
# Interleukin-26 = biological target: T1, Interleukin-26 (human, UniProt Q9NPH9 22-171)
# T1 construct: Interleukin-26, human, UniProt Q9NPH9; see the manufacturer's catalogue number; also called IL-26; source: bought: R&D Systems (source E. coli)
# T1 sequence (looked up): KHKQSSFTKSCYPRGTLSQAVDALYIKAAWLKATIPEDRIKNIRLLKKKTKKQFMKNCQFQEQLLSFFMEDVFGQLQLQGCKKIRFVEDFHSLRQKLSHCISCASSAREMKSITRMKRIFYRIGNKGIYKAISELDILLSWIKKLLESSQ
# Interleukin-10 = biological target: T2, Interleukin-10 (human, UniProt P22301 19-178)
# T2 construct: Interleukin-10, human, UniProt P22301; see the manufacturer's catalogue number; also called IL-10; source: bought: PeproTech (source E. coli)
# Interleukin-22 = biological target: T3, Interleukin-22 (human, UniProt Q9GZX6 34-179)
# T3 construct: Interleukin-22, human, UniProt Q9GZX6; see the manufacturer's catalogue number; also called IL-22; source: bought: PeproTech (source E. coli)
# T3 sequence (looked up): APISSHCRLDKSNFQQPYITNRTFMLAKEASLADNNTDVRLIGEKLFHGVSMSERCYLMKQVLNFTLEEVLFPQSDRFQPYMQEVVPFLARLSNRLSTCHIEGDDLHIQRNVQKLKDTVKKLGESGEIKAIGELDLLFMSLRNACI
# Thrombopoietin = biological target: T4, Thrombopoietin (human, UniProt P40225 22-353)
# T4 construct: Thrombopoietin, human, UniProt P40225; see the manufacturer's catalogue number; also called THPO; source: bought: SCI-Store (Russia) (source CHO)
# Interleukin-31 = biological target: T5, Interleukin-31 (human, UniProt Q6EBC2 24-164)
# T5 construct: Interleukin-31, human, UniProt Q6EBC2; see the manufacturer's catalogue number; also called IL-31; source: bought: PeproTech (source E. coli)
# T5 sequence (looked up): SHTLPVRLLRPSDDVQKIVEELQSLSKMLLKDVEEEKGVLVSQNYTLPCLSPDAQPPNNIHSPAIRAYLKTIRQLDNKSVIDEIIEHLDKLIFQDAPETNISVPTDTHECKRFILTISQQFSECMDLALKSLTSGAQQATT
# Interleukin-5 = biological target: T6, Interleukin-5 (human, UniProt P05113 20-134)
# T6 construct: Interleukin-5, human, UniProt P05113; also called IL-5; source: bought: PeproTech (source E. coli)
# Leptin = biological target: T7, Leptin (human, UniProt P41159 22-167)
# T7 construct: Leptin, human, UniProt P41159; see the manufacturer's catalogue number; source: bought: PeproTech (source E. coli)
# T7 sequence (P41159 22-167): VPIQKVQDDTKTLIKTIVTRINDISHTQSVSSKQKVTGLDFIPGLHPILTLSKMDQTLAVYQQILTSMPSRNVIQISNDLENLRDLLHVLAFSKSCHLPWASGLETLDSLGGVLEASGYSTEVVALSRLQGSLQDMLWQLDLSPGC
# T2 sequence (P22301 19-178): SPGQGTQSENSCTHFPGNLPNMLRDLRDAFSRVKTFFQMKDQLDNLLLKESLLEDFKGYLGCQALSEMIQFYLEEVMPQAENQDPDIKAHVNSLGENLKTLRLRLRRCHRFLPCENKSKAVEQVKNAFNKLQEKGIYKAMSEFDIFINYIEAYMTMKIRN
# T4 sequence (P40225 22-353): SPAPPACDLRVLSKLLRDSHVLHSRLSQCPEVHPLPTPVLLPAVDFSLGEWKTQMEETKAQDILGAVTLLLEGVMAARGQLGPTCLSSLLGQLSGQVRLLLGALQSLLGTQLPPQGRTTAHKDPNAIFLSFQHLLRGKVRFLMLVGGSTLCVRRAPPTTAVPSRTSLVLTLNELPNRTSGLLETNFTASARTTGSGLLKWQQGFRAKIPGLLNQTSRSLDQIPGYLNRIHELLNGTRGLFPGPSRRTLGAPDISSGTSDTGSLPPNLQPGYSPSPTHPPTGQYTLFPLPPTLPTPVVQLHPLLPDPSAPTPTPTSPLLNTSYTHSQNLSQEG
# T6 sequence (P05113 20-134): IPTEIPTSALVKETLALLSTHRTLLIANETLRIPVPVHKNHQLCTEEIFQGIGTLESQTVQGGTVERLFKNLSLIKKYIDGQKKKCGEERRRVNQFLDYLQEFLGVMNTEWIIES
binder,measurement,setting,value
B1,"Kd1 (heterogeneous ligand model, population 1)",Interleukin-26,9.02 nM
same,"Kd2 (heterogeneous ligand model, population 2)",Interleukin-26,1.32 µM
same,"kd1 (heterogeneous ligand model, population 1)",Interleukin-26,0.000144 s⁻¹
same,"kd2 (heterogeneous ligand model, population 2)",Interleukin-26,0.00509 s⁻¹
same,"Kd1 (heterogeneous ligand model, population 1)",Interleukin-10,2.55 µM
same,"Kd2 (heterogeneous ligand model, population 2)",Interleukin-10,2.66 µM
same,"kd1 (heterogeneous ligand model, population 1)",Interleukin-10,0.0106 s⁻¹
same,"kd2 (heterogeneous ligand model, population 2)",Interleukin-10,0.000519 s⁻¹
same,"Kd1 (heterogeneous ligand model, population 1)",Interleukin-22,482 nM
same,"Kd2 (heterogeneous ligand model, population 2)",Interleukin-22,780 nM
same,"kd1 (heterogeneous ligand model, population 1)",Interleukin-22,0.00764 s⁻¹
same,"kd2 (heterogeneous ligand model, population 2)",Interleukin-22,0.00276 s⁻¹
same,"Kd1 (heterogeneous ligand model, population 1)",Thrombopoietin,834 pM
same,"Kd2 (heterogeneous ligand model, population 2)",Thrombopoietin,41.2 nM
same,"kd1 (heterogeneous ligand model, population 1)",Thrombopoietin,0.000409 s⁻¹
same,"kd2 (heterogeneous ligand model, population 2)",Thrombopoietin,0.00829 s⁻¹
same,"Kd1 (heterogeneous ligand model, population 1)",Interleukin-31,25.2 nM
same,"Kd2 (heterogeneous ligand model, population 2)",Interleukin-31,202 nM
same,"kd1 (heterogeneous ligand model, population 1)",Interleukin-31,0.00023 s⁻¹
same,"kd2 (heterogeneous ligand model, population 2)",Interleukin-31,0.0583 s⁻¹
same,"Kd1 (heterogeneous ligand model, population 1)",Interleukin-5,3.66 nM
same,"Kd2 (heterogeneous ligand model, population 2)",Interleukin-5,833 nM
same,"kd1 (heterogeneous ligand model, population 1)",Interleukin-5,0.000612 s⁻¹
same,"kd2 (heterogeneous ligand model, population 2)",Interleukin-5,0.00712 s⁻¹
same,"Kd1 (heterogeneous ligand model, population 1)",Leptin,143 nM
same,"Kd2 (heterogeneous ligand model, population 2)",Leptin,404 nM
same,"kd1 (heterogeneous ligand model, population 1)",Leptin,0.000452 s⁻¹
same,"kd2 (heterogeneous ligand model, population 2)",Leptin,0.0307 s⁻¹
